Source: US20150132269

Columns and labels:
Test in all cases: cell_activity
ZFN 46786 (synthetic) = settings: pair with 46880
ZFN 46801 (synthetic) = settings: pair with 46880
ZFN 46816 (synthetic) = settings: pair with 47923
ZFN 46934 (synthetic) = settings: pair with 47923
ZFN 45843 (synthetic) = settings: pair with 45844, CD34+ cells
ZFN 46189 (synthetic) = settings: pair with 46188, K562
ZFN 46228 (synthetic) = settings: pair with 46226, K562
ZFN 46880 (synthetic) = settings: pair with 46801
ZFN 47923 (synthetic) = settings: pair with 46801
ZFN 46216 (synthetic) = settings: pair with 46217, K562
ZFN 46247 (synthetic) = settings: pair with 46246, K562
ZFN 46229 (synthetic) = settings: pair with 46230, K562
ZFN 46188 (synthetic) = settings: pair with 46189, K562
ZFN 46240 (synthetic) = settings: pair with 46241, K562
ZFN 46164 (synthetic) = settings: pair with 46163, K562
ZFN 46181 (synthetic) = settings: pair with 46180, K562
ZFN 46209 (synthetic) = settings: pair with 46208, K562
ZFN 46208 (synthetic) = settings: pair with 46209, K562
ZFN 46226 (synthetic) = settings: pair with 46228, K562
ZFN 46217 (synthetic) = settings: pair with 46216, K562
ZFN 46246 (synthetic) = settings: pair with 46247, K562
ZFN 46163 (synthetic) = settings: pair with 46164, K562
ZFN 45844 (synthetic) = settings: pair with 45843, CD34+ cells
ZFN 47021 (synthetic) = settings: pair with 45843
ZFN 46180 (synthetic) = settings: pair with 46181, K562
ZFN 46241 (synthetic) = settings: pair with 46240, K562
ZFN 46230 (synthetic) = settings: pair with 46229, K562
ZFN 46158 (synthetic) = settings: pair with 46156, K562, Cel-I
ZFN 46156 (synthetic) = settings: pair with 46158, K562

With “AAAGCAACTGTTAGCTTGCACTAGACTA (double strand) [45848/46801 target]” the activity (ZFN 46786 (synthetic)) was 71 % NHEJ (D0), the activity (ZFN 46801 (synthetic)) was 87 % NHEJ (D0) and the activity (ZFN 46816 (synthetic)) was 29.9 % indels. The activity (ZFN 46934 (synthetic)) was 80 % NHEJ (D0).
With “AAGCAACTGTTAGCTTGCACTAGACTAG (double strand) [45843 target]” the activity (ZFN 45843 (synthetic)) was 78 % NHEJ (D0).
In the case of “ACACCCTGTGATCTTGTGGGACCCCTCT (double strand) [46189 target]”, the activity (ZFN 46189 (synthetic)) was 12.8 % NHEJ.
“ATAGGGGTCGCGGTAGGGAGTTGTCGGC (double strand) [46228 target]” was tested, and the activity (ZFN 46228 (synthetic)) was 37.8 % NHEJ.
With “CACAGGCTCCAGGAAGGGTTTGGCCTCT (double strand) [45849/46880 target]” the activity (ZFN 46880 (synthetic)) was 87 % NHEJ (D0) and the activity (ZFN 47923 (synthetic)) was 82 % NHEJ (D0).
In the case of “CAGGCTGGGCTGGACAGAGGGGTCCCAC (double strand) [46216 target]”, the activity (ZFN 46216 (synthetic)) was 16.6 % NHEJ.
Sequence “CCGTCTACATAGAGGCCCTTCCTGCTTG (double strand) [46247 target]” has an activity (ZFN 46247 (synthetic)) of 17.3 % NHEJ.
In the case of “CCTATCAGTGCCGACCAAGCACACAAGA (double strand) [46229 target]”, the activity (ZFN 46229 (synthetic)) was 37.2 % NHEJ.
“CCTGAGAAGGTGGGGAGCTCACAGCCTC (double strand) [46188 target]” was tested, and the activity (ZFN 46188 (synthetic)) was 12.8 % NHEJ.
With “CTCACAGGACATGCAGCAGTGTGTGCCG (double strand) [46240 target]” the activity (ZFN 46240 (synthetic)) was 25 % NHEJ.
“GAAGGGAAGTGGGTATGGGGCAGCCCAT (double strand) [46164 target]” showed an activity (ZFN 46164 (synthetic)) of 21.9 % NHEJ.
In the case of “GCAATGCTTGGAGGCTGTGAGCTCCCCA (double strand) [46181 target]”, the activity (ZFN 46181 (synthetic)) was 15.2 % NHEJ.
“GCCTGGGTGTGCATCTTGTGTGCTTGGT (double strand) [46209 target]” showed an activity (ZFN 46209 (synthetic)) of 28 % NHEJ.
For “GGGCTGGACAGAGGGGTCCCACAAGATC (double strand) [46208 target]”, the activity (ZFN 46208 (synthetic)) was 28 % NHEJ.
With “GTGCCGACCAAGCACACAAGATGCACAC (double strand) [46226 target]” the activity (ZFN 46226 (synthetic)) was 37.8 % NHEJ.
In the case of “GTGTGCATCTTGTGTGCTTGGTCGGCAC (double strand) [46217 target]”, the activity (ZFN 46217 (synthetic)) was 16.6 % NHEJ.
“GTGTGGCTCCTTAAGGTGACCCAGCAGC (double strand) [46246 target]” showed an activity (ZFN 46246 (synthetic)) of 17.3 % NHEJ.
Work on “TAGAATTGGCCTGGGACATTCATTATTT (double strand) [46163 target]” yielded an activity (ZFN 46163 (synthetic)) of 21.9 % NHEJ.
In the case of “TCACAGGCTCCAGGAAGGGTTTGGCCTC (double strand) [45844 target]”, the activity (ZFN 45844 (synthetic)) was 78 % NHEJ (D0) and the activity (ZFN 47021 (synthetic)) was 82 % NHEJ (D0).
In the case of “TCATCCTGGTACCAGGAAGGCAATGGGC (double strand) [46180 target]”, the activity (ZFN 46180 (synthetic)) was 15.2 % NHEJ.
For “TCCCCAAGGCTGTGCCCAGCCTTCAGTG (double strand) [46241 target]”, the activity (ZFN 46241 (synthetic)) was 25 % NHEJ.
Work on “TCGCGGTAGGGAGTTGTCGGCACACACT (double strand) [46230 target]” yielded an activity (ZFN 46230 (synthetic)) of 37.2 % NHEJ.
With “TCTAGGAAGGGAAGTGGGTATGGGGCAG (double strand) [46158 target]” the activity (ZFN 46158 (synthetic)) was 30.4 % NHEJ.
“TGGCCTGGGACATTCATTATTTAGCCAC (double strand) [46156 target]” showed an activity (ZFN 46156 (synthetic)) of 30.4 % NHEJ.
